These results are taken from paper PMC11115250.

The assay has as its target PPARγ (plasmid-encoded, Addgene #8862) (UniProt P37238).

“ZFP407 (plasmid-encoded, Origene cat. MR214555) (natural protein)” showed a PPRE luciferase reporter in 293T cells, PPARγ co-transfected with WT ZFP407 against PPARγ alone greater than 2 fold.
